# Test results reported in article PMC10484678.
# Target: PCBP2 KH1/2 (human, UniProt Q15366 1-168)
# Assay: ITC
# Chain of PCBP2 KH1/2 (Q15366 1-168): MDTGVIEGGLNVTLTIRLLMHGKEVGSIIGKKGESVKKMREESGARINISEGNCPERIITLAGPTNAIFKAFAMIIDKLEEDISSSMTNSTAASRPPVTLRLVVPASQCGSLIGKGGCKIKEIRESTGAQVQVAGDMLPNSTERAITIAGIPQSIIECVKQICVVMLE
binder,measurement,value
GCUCUGGGGUUGUACCCACCCCAGAGC (structured_RNA) [PV stem-loop B],Kd,22.9 ± 6.3 µM
